Our source for the expression_or_secretion values is PMC9107513.

Data set [1] is described as follows: western blot, FLAG-tagged wild-type SERCA3 in C2C12. The note with it: glycan lost; control: vector / control siRNA. On the technique in general: Immunoblotting shows a protein as a band on a membrane.
The nature of data set [2]: western blot, endogenous SERCA3, C2C12 myotubes ± MG-132. The note with it: glycan lost; control: vector / control siRNA.

B1: human SERCA3: OGT knockdown (protein)
parent chain: MEAAHLLPAADVLRHFSVTAEGGLSPAQVTGARERYGPNELPSEEGKSLWELVLEQFEDLLVRILLLAALVSFVLAWFEEGEETTTAFVEPLVIMLILVANAIVGVWQERNAESAIEALKEYEPEMGKVIRSDRKGVQRIRARDIVPGDIVEVAVGDKVPADLRLIEIKSTTLRVDQSILTGESVSVTKHTEAIPDPRAVNQDKKNMLFSGTNITSGKAVGVAVATGLHTELGKIRSQMAAVEPERTPLQRKLDEFGRQLSHAISVICVAVWVINIGHFADPAHGGSWLRGAVYYFKIAVALAVAAIPEGLPAVITTCLALGTRRMARKNAIVRSLPSVETLGCTSVICSDKTGTLTTNQMSVCRMFVVAEADAGSCLLHEFTISGTTYTPEGEVRQGDQPVRCGQFDGLVELATICALCNDSALDYNEAKGVYEKVGEATETALTCLVEKMNVFDTDLQALSRVERAGACNTVIKQLMRKEFTLEFSRDRKSMSVYCTPTRPHPTGQGSKMFVKGAPESVIERCSSVRVGSRTAPLTPTSREQILAKIRDWGSGSDTLRCLALATRDAPPRKEDMELDDCSKFVQYETDLTFVGCVGMLDPPRPEVAACITRCYQAGIRVVMITGDNKGTAVAICRRLGIFGDTEDVAGKAYTGREFDDLSPEQQRQACRTARCFARVEPAHKSRIVENLQSFNEITAMTGDGVNDAPALKKAEIGIAMGSGTAVAKSAAEMVLSDDNFASIVAAVEEGRAIYSNMKQFIRYLISSNVGEVVCIFLTAILGLPEALIPVQLLWVNLVTDGLPATALGFNPPDLDIMEKLPRSPREALISGWLFFRYLAIGVYVGLATVAAATWWFVYDAEGPHINFYQLRNFLKCSEDNPLFAGIDCEVFESRFPTTMALSVLVTIEMCNALNSVSENQSLLRMPPWMNPWLLVAVAMSMALHFLILLVPPLPLIFQVTPLSGRQWVVVLQISLPVILLDEALKYLSRNHMHEEMSQK
Regarding B1, the expression_or_secretion entry in data set [1] is “decreases”.

B2: SERCA3: siRNA-mediated knockdown of OGT (protein)
parent chain: MEEAHLLSAADVLRRFSVTAEGGLSLEQVTDARERYGPNELPTEEGKSLWELVVEQFEDLLVRILLLAALVSFVLAWFEEGEETTTAFVEPLVIMLILVANAIVGVWQERNAESAIEALKEYEPEMGKVIRSDRKGVQRIRARDIVPGDIVEVAVGDKVPADLRLIEIKSTTLRVDQSILTGESVSVTKHTDAIPDPRAVNQDKKNMLFSGTNIASGKALGVAVATGLQTELGKIRSQMAAVEPERTPLQRKLDEFGRQLSHAISVICVAVWVINIGHFADPAHGGSWLRGAVYYFKIAVALAVAAIPEGLPAVITTCLALGTRRMARKNAIVRSLPSVETLGCTSVICSDKTGTLTTNQMSVCRMFVVAEAEAGTCRLHEFTISGTTYTPEGEVRQGEQPVRCGQFDGLVELATICALCNDSALDYNEAKGVYEKVGEATETALTCLVEKMNVFDTDLKGLSRVERAGACNSVIKQLMRKEFTLEFSRDRKSMSVYCTPTRADPKVQGSKMFVKGAPESVIERCSSVRVGSRTAPLSTTSREHILAKIRDWGSGSDTLRCLALATRDTPPRKEDMHLDDCSRFVQYETDLTFVGCVGMLDPPRPEVAACITRCSRAGIRVVMITGDNKGTAVAICRRLGIFGDTEDVLGKAYTGREFDDLSPEQQRQACRTARCFARVEPAHKSRIVENLQSFNEITAMTGDGVNDAPALKKAEIGIAMGSGTAVAKSAAEMVLSDDNFASIVAAVEEGRAIYNNMKQFIRYLISSNVGEVVCIFLTAILGLPEALIPVQLLWVNLVTDGLPATALGFNPPDLDIMEKPPRNPREALISGWLFFRYLAIGVYVGLATVAAATWWFLYDTEGPQVTFYQLRNFLKCSEDNPLFAGIDCKVFESRFPTTMALSVLVTIEMCNALNSVSENQSLLRMPPWLNPWLLGAVVMSMALHFLILLVPPLPLIFQVTPLSGRQWGVVLQMSLPVILLDEALKYLSRNHMDEKKDLK
For the protein B2, the expression_or_secretion result in data set [2] is reported as “decreases”.
